Measured values as given in the supplement of paper PMC7877785.
± gives the uncertainty stated by the source.

Assay: self-splicing fitness, log relative to wild type (ln ratio); higher = more splicing; Tetrahymena group I intron in knt gene, E. coli kanamycin selection, DiMSum; sequences stand for … in CUCUCU…GGAGGGAAAAGUUAUCAGGCAUGCACCUGGUAGCUAGUCUUUAAACCAAUAGAUUGCAUCGGUUUAAAAGGCAAGACCGUCAAAUUGCGGGAAAGGGGUCAACAGCCGUUCAGUACCAAGUCUCAGGGGAAACUUUGAGAUGGCCUUGCAAAGGGUAUGGUAAUAAGCUGACGGACAUGGUCCUAACCACGCAGCCAAGUCCUAAGUCAACAGAUCUUCUGUUGAUAUGGAUGCAGUUCACAGACUAAAUGUCGGUCGGGGAAGAUGUAUUCUUCUCAUAAGAUAUAGUCGGACCUCUCCUUAAUGGGAGCUAGCGGAUGAAGUGAUGCAACACUGGAGCCGCUGGGAACUAAUUUGUAUGCGAAAGUAUAUUGAUUAGUUUUGGAGUACUCGUGGUCG
Summary of the method: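 Library with all eight P1ex-region intron nucleotides randomised, intron inside the knt kanamycin-resistance gene on pET-22b(+), in E. coli BL21(DE3). Cells grew overnight at 37°C or 30°C on LB agar with or without 25 μg/mL kanamycin (plus 100 μg/mL carbenicillin, 50 μM IPTG, 0.2% rhamnose), in six replicate transformations. Pooled colonies were amplicon-sequenced on Illumina HiSeq 2500. DiMSum fitness is the error-weighted combination of wild-type-normalised replicate fold changes, kanamycin versus none.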

Sequence | self-splicing fitness (ln) (30 °C) | self-splicing fitness (ln) (37 °C)
UGCUAGCAAUAUUACGAGUG | -1.98 ± 0.12 | -1.08 ± 0.11
UGCUAGCAAUAUUACGAUAG | -2.49 ± 0.1 | -0.62 ± 0.1
UGCUAGCAAUAUUACGAUUA | -0.493 ± 0.095 | -0.286 ± 0.096
UGCUAGCAAUAUUACGCAGA | -4.03 ± 0.31 | -2.26 ± 0.17
UGCUAGCAAUAUUACGCAUA | -2.58 ± 0.18 | -1.37 ± 0.14
UGCUAGCAAUAUUACGCCUA | -0.454 ± 0.15 | -0.0492 ± 0.15
UGCUAGCAAUAUUACGCUCG | -1.2 ± 0.14 | -0.909 ± 0.17
UGCUAGCAAUAUUACGCUUG | -3.74 ± 0.21 | -0.96 ± 0.13
UGCUAGCAAUAUUACGGAAA | -2.19 ± 0.27 | -2.19 ± 0.31
UGCUAGCAAUAUUACGGACA | -0.668 ± 0.098 | 0.41 ± 0.12
UGCUAGCAAUAUUACGGAGA | – | -2 ± 0.22
UGCUAGCAAUAUUACGGAUU | -1.7 ± 0.14 | -2.02 ± 0.13
UGCUAGCAAUAUUACGGCCU | 0.151 ± 0.14 | 0.383 ± 0.16
UGCUAGCAAUAUUACGGCUG | -0.317 ± 0.15 | -0.46 ± 0.18
UGCUAGCAAUAUUACGGGAC | -2.52 ± 0.2 | -1.92 ± 0.18
UGCUAGCAAUAUUACGGUAA | -1.03 ± 0.15 | -1.47 ± 0.12
UGCUAGCAAUAUUACGUCCU | -1.19 ± 0.12 | -0.143 ± 0.14
UGCUAGCAAUAUUACGUCGC | -3.37 ± 0.2 | -2.65 ± 0.41
UGCUAGCAAUAUUACGUGAC | -3.39 ± 0.35 | -2.56 ± 0.41
UGCUAGCAAUAUUACGUGUC | -3.7 ± 0.42 | -2.72 ± 0.38
UGCUAGCAAUAUUACGUUCA | -0.255 ± 0.076 | 0.0245 ± 0.12
UGGAAGCAAUAUUACGAACU | 0.00939 ± 0.14 | -0.029 ± 0.13
UGGAAGCAAUAUUACGACCC | -0.0757 ± 0.24 | -0.147 ± 0.25
UGGAAGCAAUAUUACGACGU | -1.62 ± 0.15 | -0.761 ± 0.2
UGGAAGCAAUAUUACGAUAC | -3.37 ± 0.49 | -2.54 ± 0.48

Sequence | self-splicing fitness (ln) (30 °C) | self-splicing fitness (ln) (37 °C)
UGGAAGCAAUAUUACGCCGA | -1.53 ± 0.26 | -0.201 ± 0.27
UGGAAGCAAUAUUACGCCUU | -2.28 ± 0.31 | –
UGGAAGCAAUAUUACGCGGG | -3.32 ± 0.24 | -1.29 ± 0.22
UGGAAGCAAUAUUACGCUAG | -0.433 ± 0.1 | -0.523 ± 0.17
UGGAAGCAAUAUUACGCUCU | – | -1.45 ± 0.32
UGGAAGCAAUAUUACGGCGA | -0.779 ± 0.12 | -0.28 ± 0.16
UGGAAGCAAUAUUACGGGCG | -0.122 ± 0.1 | -0.0506 ± 0.11
UGGAAGCAAUAUUACGGGGG | -2.52 ± 0.32 | -2.89 ± 0.49
UGGAAGCAAUAUUACGGGUC | – | -3.04 ± 0.38
UGGAAGCAAUAUUACGGUUG | -1.46 ± 0.1 | -0.621 ± 0.13
UGGAAGCAAUAUUACGUCUA | -0.281 ± 0.15 | -0.741 ± 0.18
UGGAAGCAAUAUUACGUGCU | -2.92 ± 0.19 | -1.7 ± 0.17
UGGAAGCAAUAUUACGUGUA | -2.12 ± 0.099 | -0.482 ± 0.1
UGGAAGCAAUAUUACGUGUU | -3.39 ± 0.16 | -2.7 ± 0.17
UGGAAGCAAUAUUACGUUCA | -0.654 ± 0.069 | 0.00518 ± 0.092
UGGCAGCAAUAUUACGACAG | -1.02 ± 0.087 | 0.224 ± 0.11
UGGCAGCAAUAUUACGACUG | -1.01 ± 0.071 | -0.812 ± 0.1
UGGCAGCAAUAUUACGAGAU | -1.46 ± 0.21 | –
UGGCAGCAAUAUUACGAGGC | -2.12 ± 0.2 | –
UGGCAGCAAUAUUACGAGGU | -3.29 ± 0.23 | -2.53 ± 0.3
UGGCAGCAAUAUUACGAGUA | -1.75 ± 0.15 | -1.46 ± 0.13
UGGCAGCAAUAUUACGAUUC | – | -1.46 ± 0.32
UGGCAGCAAUAUUACGAUUG | -1.07 ± 0.074 | 0.135 ± 0.093
UGGCAGCAAUAUUACGCACU | -0.473 ± 0.068 | 0.399 ± 0.094
UGGCAGCAAUAUUACGCGCA | -0.259 ± 0.14 | 0.284 ± 0.15

Sequence | self-splicing fitness (ln) (30 °C) | self-splicing fitness (ln) (37 °C)
UGGCAGCAAUAUUACGCUGG | -3.47 ± 0.33 | -2.53 ± 0.29
UGGCAGCAAUAUUACGGCCA | – | -0.836 ± 0.45
UGGCAGCAAUAUUACGGCUU | -0.209 ± 0.075 | 0.316 ± 0.098
UGGCAGCAAUAUUACGGGAG | -3.13 ± 0.21 | -1.15 ± 0.14
UGGCAGCAAUAUUACGGUGC | -3.3 ± 0.23 | -2.79 ± 0.32
UGGCAGCAAUAUUACGUAAC | -3.2 ± 0.22 | -2.16 ± 0.26
UGGCAGCAAUAUUACGUCAU | -4.47 ± 0.33 | -2.67 ± 0.26
UGGCAGCAAUAUUACGUCCC | 0.385 ± 0.14 | -0.074 ± 0.19
UGGCAGCAAUAUUACGUCGG | -0.425 ± 0.097 | -0.268 ± 0.13
UGGCAGCAAUAUUACGUUCG | -0.337 ± 0.068 | 0.283 ± 0.096
UGGGAGCAAUAUUACGCGAA | -1.59 ± 0.23 | -1.67 ± 0.34
UGGGAGCAAUAUUACGCGGU | -3.43 ± 0.24 | -3.8 ± 0.33
UGGGAGCAAUAUUACGGCUA | -0.66 ± 0.21 | -0.59 ± 0.15
UGGGAGCAAUAUUACGGCUG | -1.09 ± 0.19 | -2.31 ± 0.26
UGGGAGCAAUAUUACGGGGA | -2.94 ± 0.32 | -2.9 ± 0.29
UGGGAGCAAUAUUACGGUCG | -1.47 ± 0.12 | -0.961 ± 0.2
UGGGAGCAAUAUUACGGUGG | -2.67 ± 0.46 | –
UGGGAGCAAUAUUACGUAUU | -2.76 ± 0.33 | -1.91 ± 0.28
UGGGAGCAAUAUUACGUCGA | -1.85 ± 0.39 | -1.21 ± 0.28
UGGUAGCAAUAUUACGAAGG | -2.95 ± 0.28 | -1.39 ± 0.24
UGGUAGCAAUAUUACGAGAC | -1.69 ± 0.24 | -2.71 ± 0.43
UGGUAGCAAUAUUACGCACA | -0.0584 ± 0.068 | 0.436 ± 0.074
UGGUAGCAAUAUUACGCCAG | -1.16 ± 0.28 | -0.742 ± 0.3
UGGUAGCAAUAUUACGCCCG | 0.0173 ± 0.14 | -0.718 ± 0.17
UGGUAGCAAUAUUACGCCUC | -1.82 ± 0.39 | -2.03 ± 0.39

Sequence | self-splicing fitness (ln) (30 °C) | self-splicing fitness (ln) (37 °C)
UGGUAGCAAUAUUACGCGCG | 0.0906 ± 0.2 | -0.0153 ± 0.25
UGGUAGCAAUAUUACGCGUC | -3.94 ± 0.43 | -2.52 ± 0.35
UGGUAGCAAUAUUACGCGUU | -2.76 ± 0.13 | -1.32 ± 0.12
UGGUAGCAAUAUUACGCUCA | -0.626 ± 0.14 | 0.26 ± 0.18
UGGUAGCAAUAUUACGCUGA | -1.07 ± 0.15 | -0.679 ± 0.11
UGGUAGCAAUAUUACGGAAG | -2.16 ± 0.15 | -1.27 ± 0.18
UGGUAGCAAUAUUACGGGCU | -2.27 ± 0.14 | -0.926 ± 0.11
UGGUAGCAAUAUUACGGGGC | – | -2.37 ± 0.38
UGGUAGCAAUAUUACGUCCU | 0.31 ± 0.2 | 0.713 ± 0.3
UGGUAGCAAUAUUACGUGUC | -2.13 ± 0.46 | –
UGUAAGCAAUAUUACGAAAC | -4.22 ± 0.3 | -2.95 ± 0.25
UGUAAGCAAUAUUACGAAGG | -2.14 ± 0.15 | -1.92 ± 0.25
UGUAAGCAAUAUUACGACAG | -1.29 ± 0.11 | -0.146 ± 0.13
UGUAAGCAAUAUUACGACGU | -1.29 ± 0.11 | -0.138 ± 0.13
UGUAAGCAAUAUUACGAGUA | -1.48 ± 0.11 | -0.65 ± 0.12
UGUAAGCAAUAUUACGAGUG | -2.02 ± 0.13 | -0.484 ± 0.14
UGUAAGCAAUAUUACGAUGG | -2.9 ± 0.13 | -0.756 ± 0.12
UGUAAGCAAUAUUACGCAAA | -2.11 ± 0.16 | -0.927 ± 0.13
UGUAAGCAAUAUUACGCGGC | – | -1.13 ± 0.27
UGUAAGCAAUAUUACGCGGU | -3.22 ± 0.21 | -2.15 ± 0.29
UGUAAGCAAUAUUACGGACC | -1.18 ± 0.18 | -0.408 ± 0.18
UGUAAGCAAUAUUACGGGUA | -1.61 ± 0.22 | -0.187 ± 0.16
UGUAAGCAAUAUUACGGUCC | -2.16 ± 0.14 | -1.29 ± 0.14
UGUAAGCAAUAUUACGGUUU | -2.96 ± 0.16 | -1.68 ± 0.18
